The results in this text go back to publication PMC9616786 (Cellular and Molecular Life Sciences, 2022).

Where no end group is shown, it is not given here. The star is where a group is joined. Biotin = O=C1N[C@H]2[C@H](CS[C@H]2CCCCC(=O)*)N1

In the experiment the target is T1, Calmodulin from bovine brain (bovine, UniProt P62157 1-149).
T1 construct: calmodulin, bovine, purified from brain; also called purified bovine brain CaM; CaM; source: bought: Sigma-Aldrich Cat#208694, purified from bovine brain
The experiment can be described thus: SPR; Biacore 3000, 25 °C; biotinylated peptides captured on a streptavidin chip; CaM injected at 13.2 nM to 9.6 µM; HBSP (10 mM HEPES pH 7.4, 150 mM NaCl, 0.005% P20) with 1 mM CaCl2; equilibrium analysis, apparent KD. Particulars: both partners purified.

B1: Peptide INF2 2-19 L14L18A, biotinylated (for surface plasmon resonance) (peptide)
peptide: K(Biotin)GGSVKEGAQRKWAAAKEKAG
notes: added N-terminal K (biotinylated) and two G residues as spacer; INF2, human, amino acids 2-19 with L14A and L18A; also called double L14L18A 2-19 peptide mutant; source: synthetic peptide (Proteomics Facility, CNB, CSIC), HPLC purified
As to B1, the binding result is recorded as “binds”.
